Experimental data as given in the supplement of paper PMC10567573.

B1: BTBD10 (parent)
chain: DRKLHSRPRKLYKHSSTSSRIAKG

Variants of: B1
Assay: protein stability index of a GFP-peptide fusion (GPS, HEK-293T) (PSI 1-6); higher = more stable
Settings: c terminus: a fixed tail appended
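Also: lentivirally expressed fusions sorted by FACS into six bins by GFP to DsRed ratio, PSI derived from sequencing read proportions per bin multiplied by bin number.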

Variant	protein stability index
DRKLHSRTRKLYKHSSTSSRIAKG [P8T]	3.31
DRKLHSRCRKLYKHSSTSSRIAKG [P8C]	4.03
DRKLHSRLRKLYKHSSTSSRIAKG [P8L]	2.76
DRKLHSRVRKLYKHSSTSSRIAKG [P8V]	3.05
DRKLHSRHRKLYKHSSTSSRIAKG [P8H]	4.12
DRKLHSRGRKLYKHSSTSSRIAKG [P8G]	3.68
DRKLHSRERKLYKHSSTSSRIAKG [P8E]	4.08
DRKLHSRSRKLYKHSSTSSRIAKG [P8S]	3.5
DRKLHSRFRKLYKHSSTSSRIAKG [P8F]	2.21
DRKLHSRRRKLYKHSSTSSRIAKG [P8R]	3.18
DRKLHSRIRKLYKHSSTSSRIAKG [P8I]	3.65
DRKLHSRQRKLYKHSSTSSRIAKG [P8Q]	4.24
DRKLHSRDRKLYKHSSTSSRIAKG [P8D]	4.51
DRKLHSRARKLYKHSSTSSRIAKG [P8A]	4.2
DRKLHSRNRKLYKHSSTSSRIAKG [P8N]	3.81
DRKLHSRKRKLYKHSSTSSRIAKG [P8K]	3.67
DRKLHSRMRKLYKHSSTSSRIAKG [P8M]	3.02
DRKLHSRPCKLYKHSSTSSRIAKG [R9C]	3.74
DRKLHSRPAKLYKHSSTSSRIAKG [R9A]	4.1
DRKNHSRPRKLYKHSSTSSRIAKG [L4N]	3.77
DRKMHSRPRKLYKHSSTSSRIAKG [L4M]	4.23
DRKSHSRPRKLYKHSSTSSRIAKG [L4S]	4.71
DRKAHSRPRKLYKHSSTSSRIAKG [L4A]	4.42
DRKIHSRPRKLYKHSSTSSRIAKG [L4I]	3.62

Variant	protein stability index
DRKKHSRPRKLYKHSSTSSRIAKG [L4K]	4.28
DRKCHSRPRKLYKHSSTSSRIAKG [L4C]	3.9
DRKHHSRPRKLYKHSSTSSRIAKG [L4H]	4.09
DRKPHSRPRKLYKHSSTSSRIAKG [L4P]	4.11
DRKGHSRPRKLYKHSSTSSRIAKG [L4G]	3.72
DRKYHSRPRKLYKHSSTSSRIAKG [L4Y]	3.8
DRKDHSRPRKLYKHSSTSSRIAKG [L4D]	4.49
DRKFHSRPRKLYKHSSTSSRIAKG [L4F]	3.92
DRKTHSRPRKLYKHSSTSSRIAKG [L4T]	4.3
DRKVHSRPRKLYKHSSTSSRIAKG [L4V]	3.71
DRKQHSRPRKLYKHSSTSSRIAKG [L4Q]	4.08
DRKEHSRPRKLYKHSSTSSRIAKG [L4E]	4.28
DRKRHSRPRKLYKHSSTSSRIAKG [L4R]	3.9
DRKWHSRPRKLYKHSSTSSRIAKG [L4W]	3.5
DRKLHSNPRKLYKHSSTSSRIAKG [R7N]	4.1
DRKLHSDPRKLYKHSSTSSRIAKG [R7D]	4.54
DRKLHSKPRKLYKHSSTSSRIAKG [R7K]	3.33
DRKLHSQPRKLYKHSSTSSRIAKG [R7Q]	4.4
DRKLHSCPRKLYKHSSTSSRIAKG [R7C]	3.76
DRKLHSLPRKLYKHSSTSSRIAKG [R7L]	2.84
DRKLHSEPRKLYKHSSTSSRIAKG [R7E]	4.41
DRKLHSGPRKLYKHSSTSSRIAKG [R7G]	4.33
DRKLHSWPRKLYKHSSTSSRIAKG [R7W]	2.97
DRKLHSSPRKLYKHSSTSSRIAKG [R7S]	4.21

Variant	protein stability index
DRKLHSIPRKLYKHSSTSSRIAKG [R7I]	3.31
DRKLHSYPRKLYKHSSTSSRIAKG [R7Y]	3.83
DRKLHSAPRKLYKHSSTSSRIAKG [R7A]	3.98
DRKLHSMPRKLYKHSSTSSRIAKG [R7M]	3.84
DRKLHSHPRKLYKHSSTSSRIAKG [R7H]	3.79
DRKLHSPPRKLYKHSSTSSRIAKG [R7P]	4.33
DRKLHSFPRKLYKHSSTSSRIAKG [R7F]	2.59
DRKLHSTPRKLYKHSSTSSRIAKG [R7T]	4.31
DRKLHSVPRKLYKHSSTSSRIAKG [R7V]	3.28
DRWLHSRPRKLYKHSSTSSRIAKG [K3W]	3.64
DRELHSRPRKLYKHSSTSSRIAKG [K3E]	4.03
DRHLHSRPRKLYKHSSTSSRIAKG [K3H]	4.41
DRFLHSRPRKLYKHSSTSSRIAKG [K3F]	3.24
DRYLHSRPRKLYKHSSTSSRIAKG [K3Y]	3.37
DRQLHSRPRKLYKHSSTSSRIAKG [K3Q]	3.87
DRCLHSRPRKLYKHSSTSSRIAKG [K3C]	3.95
DRMLHSRPRKLYKHSSTSSRIAKG [K3M]	3.56
DRDLHSRPRKLYKHSSTSSRIAKG [K3D]	4.42
DRALHSRPRKLYKHSSTSSRIAKG [K3A]	4.52
DRILHSRPRKLYKHSSTSSRIAKG [K3I]	3.47
DRPLHSRPRKLYKHSSTSSRIAKG [K3P]	3.92
DRTLHSRPRKLYKHSSTSSRIAKG [K3T]	3.83
DRVLHSRPRKLYKHSSTSSRIAKG [K3V]	3.92
DRSLHSRPRKLYKHSSTSSRIAKG [K3S]	3.57

Variant	protein stability index
DRRLHSRPRKLYKHSSTSSRIAKG [K3R]	3.63
DRLLHSRPRKLYKHSSTSSRIAKG [K3L]	3.77
DRNLHSRPRKLYKHSSTSSRIAKG [K3N]	3.55
DRKLHLRPRKLYKHSSTSSRIAKG [S6L]	2.4
DRKLHERPRKLYKHSSTSSRIAKG [S6E]	4.41
DRKLHWRPRKLYKHSSTSSRIAKG [S6W]	2.92
DRKLHNRPRKLYKHSSTSSRIAKG [S6N]	4.04
DRKLHPRPRKLYKHSSTSSRIAKG [S6P]	4.42
DRKLHARPRKLYKHSSTSSRIAKG [S6A]	3.67
DRKLHRRPRKLYKHSSTSSRIAKG [S6R]	3.39
DRKLHTRPRKLYKHSSTSSRIAKG [S6T]	3.76
DRKLHHRPRKLYKHSSTSSRIAKG [S6H]	3.68
DRKLHFRPRKLYKHSSTSSRIAKG [S6F]	3.18
DRKLHMRPRKLYKHSSTSSRIAKG [S6M]	3.46
DRKLHDRPRKLYKHSSTSSRIAKG [S6D]	4.69
DRKLHQRPRKLYKHSSTSSRIAKG [S6Q]	3.89
DRKLHCRPRKLYKHSSTSSRIAKG [S6C]	3.43
DRKLHVRPRKLYKHSSTSSRIAKG [S6V]	3.91
DRKLHGRPRKLYKHSSTSSRIAKG [S6G]	3.48
DRKLHKRPRKLYKHSSTSSRIAKG [S6K]	3.55
DRKLHIRPRKLYKHSSTSSRIAKG [S6I]	3.58
DRKLHYRPRKLYKHSSTSSRIAKG [S6Y]	3.78
